# Reference: article PMC11253611, “The chaperone PrsA2 regulates the secretion, stability, and folding of listeriolysin O during Listeria monocytogenes infection” (mBio, 2024)
# Assays:
# [1] = target: recombinant listeriolysin O (without the signal sequence, 25-529) (Listeria monocytogenes 10403S) (UniProt P13128); assay: ITC; pH 6.5, 25°C; PrsA2 (19.0 µM) or mutant titrated into LLO (0.4 µM); 20 mM MES, 100 mM NaCl, 1 mM β-mercaptoethanol, 10% glycerol; independent binding model; n counts PrsA2 monomers per LLO
# [2] = target: recombinant listeriolysin O (without the signal sequence, 25-529) (Listeria monocytogenes 10403S) (UniProt P13128); assay: MST; pH 6.5, 25°C; NHS-dye-labelled PrsA2 or mutant (20-150 nM) with serially diluted unlabelled LLO; 20 mM MES, 100 mM NaCl, 1 mM β-mercaptoethanol, 10% glycerol, 0.05% Tween 20; 1:1 model in PALMIST
# [3] = target: T1, recombinant listeriolysin O (without the signal sequence, 25-529) (Listeria monocytogenes 10403S, UniProt P13128 25-529); assay: ITC; pH 5.5, 25°C; PrsA2 titrated into LLO; 20 mM MES, 100 mM NaCl, 1 mM β-mercaptoethanol, 10% glycerol; independent binding model; n counts PrsA2 monomers per LLO; conditions: both partners purified
# T1 construct: also called LLO; source: E. coli BL21 (DE3*), purified (nickel-NTA, dialysis)
# [4] = target: T1, recombinant listeriolysin O (without …); assay: ITC; pH 5.5, 37°C; PrsA2 titrated into LLO; 20 mM MES, 100 mM NaCl, 1 mM β-mercaptoethanol, 10% glycerol; independent binding model; n counts PrsA2 monomers per LLO; conditions: both partners purified
# [5] = target: T1, recombinant listeriolysin O (without …); assay: ITC; pH 6.5, 37°C; PrsA2 titrated into LLO; 20 mM MES, 100 mM NaCl, 1 mM β-mercaptoethanol, 10% glycerol; independent binding model; n counts PrsA2 monomers per LLO; conditions: both partners purified
# [6] = target: T1, recombinant listeriolysin O (without …); assay: ITC; pH 7.4, 25°C; PrsA2 titrated into LLO; 20 mM MES, 100 mM NaCl, 1 mM β-mercaptoethanol, 10% glycerol; independent binding model; n counts PrsA2 monomers per LLO; conditions: both partners purified
# [7] = target: the molecule itself; assay: cross-linking; 500 ng His-tagged protein with 10 µM BS3 for 1 hour at room temperature in 20 mM HEPES, 200 mM NaCl, pH 6.5; heated at 85°C, SDS-PAGE, anti-His Western blot
# [8] = target: T1, recombinant listeriolysin O (without …); assay: ITC; pH 6.5, 25°C; PrsA2 (19.0 µM) or mutant titrated into LLO (0.4 µM); 20 mM MES, 100 mM NaCl, 1 mM β-mercaptoethanol, 10% glycerol; independent binding model; n counts PrsA2 monomers per LLO; conditions: both partners purified
# [9] = target: T1, recombinant listeriolysin O (without …); assay: MST; pH 5.5, 25°C; NHS-dye-labelled PrsA2 (20-150 nM) with serially diluted unlabelled LLO; 20 mM MES, 100 mM NaCl, 1 mM β-mercaptoethanol, 10% glycerol, 0.05% Tween 20; 1:1 model in PALMIST; conditions: both partners purified
# [10] = target: T1, recombinant listeriolysin O (without …); assay: MST; pH 5.5, 37°C; NHS-dye-labelled PrsA2 (20-150 nM) with serially diluted unlabelled LLO; 20 mM MES, 100 mM NaCl, 1 mM β-mercaptoethanol, 10% glycerol, 0.05% Tween 20; 1:1 model in PALMIST; conditions: both partners purified
# [11] = target: T1, recombinant listeriolysin O (without …); assay: MST; pH 6.5, 37°C; NHS-dye-labelled PrsA2 (20-150 nM) with serially diluted unlabelled LLO; 20 mM MES, 100 mM NaCl, 1 mM β-mercaptoethanol, 10% glycerol, 0.05% Tween 20; 1:1 model in PALMIST; conditions: both partners purified
# [12] = target: T1, recombinant listeriolysin O (without …); assay: MST; pH 7.4, 25°C; NHS-dye-labelled PrsA2 (20-150 nM) with serially diluted unlabelled LLO; 20 mM MES, 100 mM NaCl, 1 mM β-mercaptoethanol, 10% glycerol, 0.05% Tween 20; 1:1 model in PALMIST; conditions: both partners purified
# [13] = target: T1, recombinant listeriolysin O (without …); assay: MST; pH 7.4, 37°C; NHS-dye-labelled PrsA2 (20-150 nM) with serially diluted unlabelled LLO; 20 mM MES, 100 mM NaCl, 1 mM β-mercaptoethanol, 10% glycerol, 0.05% Tween 20; 1:1 model in PALMIST; conditions: both partners purified
# [14] = target: T1, recombinant listeriolysin O (without …); assay: ITC; pH 6.5, 25°C; PrsA2 (19.0 µM) or mutant titrated into LLO (0.4 µM); 20 mM MES, 100 mM NaCl, 1 mM β-mercaptoethanol, 10% glycerol; independent binding model; n counts PrsA2 monomers per LLO; conditions: both partners purified; remark: listed apart in the source
# [15] = target: T1, recombinant listeriolysin O (without …); assay: MST; pH 6.5, 25°C; NHS-dye-labelled PrsA2 or mutant (20-150 nM) with serially diluted unlabelled LLO; 20 mM MES, 100 mM NaCl, 1 mM β-mercaptoethanol, 10% glycerol, 0.05% Tween 20; 1:1 model in PALMIST; conditions: both partners purified
# [16] = target: T1, recombinant listeriolysin O (without …); assay: ITC; pH 7.4, 37°C; PrsA2 titrated into LLO at low LLO concentrations to mitigate heats of self-aggregation; 20 mM MES, 100 mM NaCl, 1 mM β-mercaptoethanol, 10% glycerol; independent binding model; n counts PrsA2 monomers per LLO; conditions: both partners purified
# [17] = target: T1, recombinant listeriolysin O (without …); assay: cell-based or functional assay
# [18] = target: T1, recombinant listeriolysin O (without …); assay: ITC; pH 6.5, 25°C; PrsA2 (19.0 µM) or mutant titrated into LLO (0.4 µM); 20 mM MES, 100 mM NaCl, 1 mM β-mercaptoethanol, 10% glycerol; independent binding model; n counts PrsA2 monomers per LLO; conditions: both partners purified; remark: listed apart in the source
# [19] = target: T1, recombinant listeriolysin O (without …); assay: MST; pH 6.5, 25°C; NHS-dye-labelled PrsA2 or mutant (20-150 nM) with serially diluted unlabelled LLO; 20 mM MES, 100 mM NaCl, 1 mM β-mercaptoethanol, 10% glycerol, 0.05% Tween 20; 1:1 model in PALMIST; conditions: both partners purified; remark: listed apart in the source
# [20] = target: T1, recombinant listeriolysin O (without …); assay: as above; conditions: both partners purified; remark: listed apart in the source
molecule,measurement,setting,value
"PrsA2 N+C (foldase domain only, lacks the entire PPIase domain) (from UniProt Q8Y557 21-293) (domain or fragment)",Kd,[1],0.357 µM
same,dH,[1],-69.3 kJ/mol
same,stoichiometry N,[1],2.08
same,Kd,[2],0.33 µM
"recombinant PrsA2 (wild type, without the signal sequence) (natural protein, also called Lm PrsA2; pQE60-prsA2; source: E. coli BL21 (DE3*), purified (nickel-NTA, dialysis)) CGGGGDVVKTDSGDVTKDELYDAMKDKYGSEFVQQLTFEKILGDKYKVSDEDVDKKFNEYKSQYGDQFSAVLTQSGLTEKSFKSQLKYNLLVQKATEANTDTSDKTLKKYYETWQPDITVSHILVADENKAKEVEQKLKDGEKFADLAKEYSTDTATKDNGGQLAPFGPGKMDPAFEKAAYALKNKGDISAPVKTQYGYHIIQMDKPATKTTFEKDKKAVKASYLESQLTTENMQKTLKKEYKDANVKVEDKDLKDAFKDFDGSSSSDSDSSK",Kd,[3],0.201 µM
same,dH,[3],-33.2 kJ/mol
same,stoichiometry N,[3],1.96
same,Kd,[4],0.33 µM
same,dH,[4],-23 kJ/mol
same,stoichiometry N,[4],1.95
same,Kd,[5],0.0883 µM
same,dH,[5],-129 kJ/mol
same,stoichiometry N,[5],1.73
same,Kd,[6],0.0461 µM
same,dH,[6],-91 kJ/mol
same,stoichiometry N,[6],2.11
same,stoichiometry N,[7],2
same,Ka,[8],2.65e+07 M⁻¹
same,Kd,[8],0.0378 µM
same,Kd,[9],0.15 µM
same,Kd,[10],0.19 µM
same,Kd,[11],0.028 µM
same,Kd,[12],0.023 µM
same,Kd,[13],0.039 µM
same,Kd,[14],0.0377 µM
same,dH,[14],-440 kJ/mol
same,stoichiometry N,[14],2.21
same,Kd,[15],0.012 µM
same,Kd,[16],0.0672 µM
same,dH,[16],-53.6 kJ/mol
same,stoichiometry N,[16],2.01
"PrsA2 V91T (natural protein, Listeria monocytogenes, UniProt Q8Y557 21-293, looked up, Red NHS dye (NanoTemper 2nd Generation) on primary amines, in the MST experiments only, Same limits and tag as m1; also called foldase domain mutant; source: E. coli BL21 (DE3*), purified (nickel-NTA, dialysis)) CGGGGDVVKTDSGDVTKDELYDAMKDKYGSEFVQQLTFEKILGDKYKVSDEDVDKKFNEYKSQYGDQFSATLTQSGLTEKSFKSQLKYNLLVQKATEANTDTSDKTLKKYYETWQPDITVSHILVADENKAKEVEQKLKDGEKFADLAKEYSTDTATKDNGGQLAPFGPGKMDPAFEKAAYALKNKGDISAPVKTQYGYHIIQMDKPATKTTFEKDKKAVKASYLESQLTTENMQKTLKKEYKDANVKVEDKDLKDAFKDFDGSSSSDSDSSK","LLO hemolytic activity at pH 5.5 and 30°C after 1 hour at pH 7.4 and 37°C with the chaperone mutant at a 30:1 molar ratio (protection assay), against wild-type PrsA2 or PrsA2 N+C",[17],~2 fold
same,Kd,[18],0.00964 µM
same,dH,[18],-17.6 kJ/mol
same,stoichiometry N,[18],2.11
same,Kd,[19],0.0028 µM
"PrsA2 No dimer mutant/PrsA2^M (V28A/L40A/Y41A/M44A) (natural protein, Listeria monocytogenes, UniProt Q8Y557 21-293, looked up, Red NHS dye (NanoTemper 2nd Generation) on primary amines, in the MST experiments only, Same limits and tag as m1; also called PrsA2 monomer; PrsA2 dimer mutant; source: E. coli BL21 (DE3*), purified (nickel-NTA, dialysis)) CGGGGDVAKTDSGDVTKDEAADAAKDKYGSEFVQQLTFEKILGDKYKVSDEDVDKKFNEYKSQYGDQFSAVLTQSGLTEKSFKSQLKYNLLVQKATEANTDTSDKTLKKYYETWQPDITVSHILVADENKAKEVEQKLKDGEKFADLAKEYSTDTATKDNGGQLAPFGPGKMDPAFEKAAYALKNKGDISAPVKTQYGYHIIQMDKPATKTTFEKDKKAVKASYLESQLTTENMQKTLKKEYKDANVKVEDKDLKDAFKDFDGSSSSDSDSSK","LLO hemolytic activity at pH 5.5 and 30°C after 1 hour at pH 7.4 and 37°C with the chaperone mutant at a 30:1 molar ratio (protection assay), against wild-type PrsA2 or PrsA2 N+C",[17],~2 fold
same,Kd,[18],0.206 µM
same,dH,[18],-89.3 kJ/mol
same,stoichiometry N,[18],2.06
same,Kd,[20],~0.33 µM
same,Kd,[19],0.19 µM
